Results published in publication PMC2566859 (Nucleic Acids Research, 2008).

B1: TM1769, small subunit of Thermotoga maritima Exonuclease VII (XseB homolog) (natural protein, UniProt Q9X290 1-75, looked up)
chain: MNFEEMMKELEEIVNRLENEDLPLEESIKLFERGVELYRKCKEILQQNRLKIIDVMKELEGEIDASGRDQENELR
B2: TM1768, large subunit of Thermotoga maritima Exonuclease VII (XseA homolog) (enzyme, UniProt Q9X289 1-394, looked up)
chain: MKDYTYSVTEINEYIKDLIEGDPYLTNVSVYGEISGVRPRKGHIFFSLVEENARLECVIFGGDNMGIRLQEGRMALVEGSVSVYIPHGTYRFICSNVRYLDQAGMYQIKFETTLKKLLEEGLLSRPKKTVPRFPRKIGIITSRDSAALQDVIRTARERKAPIEIYVFHTSVQGDSAREELIKALRKANEYDLDLVMIVRGGGSKEDLWVFNEEDVIREILRLRHPVVTGIGHEIDRVIADFVADVSMHTPTGAAEYVIPDASEIHEDLDSFFEKLITSLSNRFDMEERRLETLYFRLRMIGRRKLELNEFKIERVKELAAKLRKKLMDYFEHNQKKLDSLGRMLESLNPLRPLERGFVLVKKDEKIVKESTDLKRGDVVSLVFKDGTKKAQVIG

Tests used:
[1] = biological target: the molecule itself; experiment: SEC
[2] = biological target: B1; experiment: SEC

Binder	stoichiometry N [1]	stoichiometry N [2] [TM1769 per TM1768]
B1	4	–
B2	–	~4
